Data on seven molecules can be found in PMC11594918, “Kinetic Features of Degradation of R-Loops by RNase H1 from Escherichia coli”.

The target in data set [1] is T1, RNase H1 D10N (RH1 D10N) (Escherichia coli, UniProt P0A7Y4 1-155, D10N).
T1 sequence: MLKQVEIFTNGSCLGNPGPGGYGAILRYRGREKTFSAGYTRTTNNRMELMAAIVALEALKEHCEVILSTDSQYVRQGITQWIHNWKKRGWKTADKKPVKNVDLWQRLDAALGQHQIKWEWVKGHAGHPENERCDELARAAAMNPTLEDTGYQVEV
Briefly: MST; 10 mM Mg2+; saturation not reached, low limit estimate; MST: 40 mM Tris-HCl pH 7.9, 40 mM KCl, 10 mM MgCl2, 25 C; R-loop 0.5 uM, RH1 D10N 0.05-30 uM (RNAP MST conditions not stated separately). To be noted: protein: recombinant, tags: N-terminal 6xHis, label: 5'-FAM on RNA, three strands 1:1:1, bubble.

Data set [2] deals with T1, RNase H1 D10N (RH1 D10N). Briefly: MST; 10 mM Mg2+; MST: 40 mM Tris-HCl pH 7.9, 40 mM KCl, 10 mM MgCl2, 25 C; R-loop 0.5 uM, RH1 D10N 0.05-30 uM (RNAP MST conditions not stated separately). The following applies: protein: recombinant, tags: N-terminal 6xHis, label: 5'-FAM on RNA, bubble.
For data set [3], the target named is RNA polymerase (RNAP) (Escherichia coli, UniProt P0A7Z4;P0A8V2;P0A8T7;P0A800 1-329;1-1342;1-1407;2-91). Kind of data set: MST; MST: 40 mM Tris-HCl pH 7.9, 40 mM KCl, 10 mM MgCl2, 25 C; R-loop 0.5 uM, RH1 D10N 0.05-30 uM (RNAP MST conditions not stated separately). To be noted: protein: recombinant; tags: N-terminal His (pVS10 plasmid); chain copies: 2;1;1;1; label: 5'-FAM on RNA; three strands 1:1:1 (nontemplate DNA, template DNA, RNA); bubble; 11 bp hybrid.

Where [4] appears, read: three strands 1:1:1, 10-11 nt hybrid.

By Kd is commonly meant the constant that tells how readily two partners part at equilibrium.

Chain of RNA polymerase (RNAP) (P0A7Z4 whole entry, chain 1 of 4): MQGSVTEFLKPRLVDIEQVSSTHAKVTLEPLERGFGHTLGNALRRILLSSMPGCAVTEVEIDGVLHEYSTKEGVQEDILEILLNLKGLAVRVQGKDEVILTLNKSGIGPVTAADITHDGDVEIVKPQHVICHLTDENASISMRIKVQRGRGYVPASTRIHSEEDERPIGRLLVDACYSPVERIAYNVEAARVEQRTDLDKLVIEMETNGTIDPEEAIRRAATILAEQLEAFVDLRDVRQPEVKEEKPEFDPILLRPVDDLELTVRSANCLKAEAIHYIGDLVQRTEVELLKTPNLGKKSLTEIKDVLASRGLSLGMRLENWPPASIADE
Chain of RNA polymerase (RNAP) (P0A8V2 whole entry, chain 2 of 4): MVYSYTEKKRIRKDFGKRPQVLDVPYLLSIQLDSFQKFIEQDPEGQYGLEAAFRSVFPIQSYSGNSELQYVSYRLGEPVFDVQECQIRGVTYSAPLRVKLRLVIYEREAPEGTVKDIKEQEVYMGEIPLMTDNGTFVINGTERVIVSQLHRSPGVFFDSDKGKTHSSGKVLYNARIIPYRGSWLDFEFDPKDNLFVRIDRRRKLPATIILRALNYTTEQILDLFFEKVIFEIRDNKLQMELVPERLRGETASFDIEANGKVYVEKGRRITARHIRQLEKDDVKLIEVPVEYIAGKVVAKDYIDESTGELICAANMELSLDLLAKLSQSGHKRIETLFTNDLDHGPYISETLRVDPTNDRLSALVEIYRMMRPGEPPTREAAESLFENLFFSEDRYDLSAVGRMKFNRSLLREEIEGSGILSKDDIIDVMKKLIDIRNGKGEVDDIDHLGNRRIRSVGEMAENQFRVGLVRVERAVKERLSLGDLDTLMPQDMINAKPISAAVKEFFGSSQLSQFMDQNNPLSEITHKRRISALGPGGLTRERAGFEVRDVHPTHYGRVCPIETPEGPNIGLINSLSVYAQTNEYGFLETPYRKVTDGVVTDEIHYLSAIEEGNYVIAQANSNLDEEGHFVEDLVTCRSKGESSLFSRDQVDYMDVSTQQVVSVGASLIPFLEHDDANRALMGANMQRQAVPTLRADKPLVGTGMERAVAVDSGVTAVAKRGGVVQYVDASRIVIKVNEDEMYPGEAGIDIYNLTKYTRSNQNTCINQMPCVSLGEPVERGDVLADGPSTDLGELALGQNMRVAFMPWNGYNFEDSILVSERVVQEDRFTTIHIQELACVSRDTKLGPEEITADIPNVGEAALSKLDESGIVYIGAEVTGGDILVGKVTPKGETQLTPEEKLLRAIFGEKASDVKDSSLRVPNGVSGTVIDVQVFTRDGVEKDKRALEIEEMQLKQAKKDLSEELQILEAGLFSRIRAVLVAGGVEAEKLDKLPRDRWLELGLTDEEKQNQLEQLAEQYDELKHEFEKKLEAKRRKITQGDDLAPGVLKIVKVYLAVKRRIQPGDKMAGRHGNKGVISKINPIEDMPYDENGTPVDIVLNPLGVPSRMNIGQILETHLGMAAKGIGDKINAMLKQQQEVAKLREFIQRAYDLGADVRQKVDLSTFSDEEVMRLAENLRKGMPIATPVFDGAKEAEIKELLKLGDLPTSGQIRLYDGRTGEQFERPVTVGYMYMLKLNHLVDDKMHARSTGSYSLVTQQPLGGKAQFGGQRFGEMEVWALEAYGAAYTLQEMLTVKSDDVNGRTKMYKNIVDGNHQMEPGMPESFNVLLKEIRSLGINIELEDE
Chain of RNA polymerase (RNAP) (P0A8T7 whole entry, chain 3 of 4): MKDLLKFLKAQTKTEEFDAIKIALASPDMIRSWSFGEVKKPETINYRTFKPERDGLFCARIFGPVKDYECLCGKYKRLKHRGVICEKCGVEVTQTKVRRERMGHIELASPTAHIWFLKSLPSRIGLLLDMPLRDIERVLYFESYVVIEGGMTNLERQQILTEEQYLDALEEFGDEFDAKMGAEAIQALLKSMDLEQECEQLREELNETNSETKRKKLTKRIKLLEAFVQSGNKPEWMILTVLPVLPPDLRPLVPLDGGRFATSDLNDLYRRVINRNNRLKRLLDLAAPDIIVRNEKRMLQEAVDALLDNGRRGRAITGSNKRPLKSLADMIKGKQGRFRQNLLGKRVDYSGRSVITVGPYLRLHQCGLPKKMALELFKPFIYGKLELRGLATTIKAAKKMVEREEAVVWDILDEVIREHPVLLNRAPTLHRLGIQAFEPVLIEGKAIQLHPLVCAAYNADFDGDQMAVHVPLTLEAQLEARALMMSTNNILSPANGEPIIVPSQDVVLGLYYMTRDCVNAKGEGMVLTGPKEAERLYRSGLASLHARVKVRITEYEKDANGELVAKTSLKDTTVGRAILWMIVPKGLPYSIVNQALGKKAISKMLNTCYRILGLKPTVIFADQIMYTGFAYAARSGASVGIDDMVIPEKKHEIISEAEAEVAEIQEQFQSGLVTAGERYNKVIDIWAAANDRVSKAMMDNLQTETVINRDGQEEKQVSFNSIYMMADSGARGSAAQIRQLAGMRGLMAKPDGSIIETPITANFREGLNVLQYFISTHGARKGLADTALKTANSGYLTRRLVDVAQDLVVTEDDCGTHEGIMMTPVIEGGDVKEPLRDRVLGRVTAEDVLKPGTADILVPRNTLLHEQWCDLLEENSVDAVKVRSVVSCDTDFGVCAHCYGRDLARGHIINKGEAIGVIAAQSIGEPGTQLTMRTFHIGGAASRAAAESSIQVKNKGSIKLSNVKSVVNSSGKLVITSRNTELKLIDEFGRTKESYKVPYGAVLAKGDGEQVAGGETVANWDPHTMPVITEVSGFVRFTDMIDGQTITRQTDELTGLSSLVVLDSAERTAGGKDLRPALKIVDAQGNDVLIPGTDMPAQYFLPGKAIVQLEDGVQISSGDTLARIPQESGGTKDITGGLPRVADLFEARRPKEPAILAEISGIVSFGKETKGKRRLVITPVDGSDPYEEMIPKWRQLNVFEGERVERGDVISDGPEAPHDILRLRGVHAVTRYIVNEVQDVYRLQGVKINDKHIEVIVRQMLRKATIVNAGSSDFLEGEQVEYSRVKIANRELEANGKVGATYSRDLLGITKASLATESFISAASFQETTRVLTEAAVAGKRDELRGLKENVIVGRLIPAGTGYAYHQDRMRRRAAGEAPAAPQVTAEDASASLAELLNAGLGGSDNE
Chain of RNA polymerase (RNAP) (P0A800 2-91, chain 4 of 4): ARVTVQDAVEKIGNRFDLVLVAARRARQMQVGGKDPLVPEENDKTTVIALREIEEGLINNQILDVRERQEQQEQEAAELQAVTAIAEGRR

B1: R-loop 6 (mixed)
DNA 1: ACTTGTAGCGATCTAAGGTCTTTTTTTTTTTTTTGGCTCATTGCAGTAGAGTAGC
DNA 2: GCTACTCTACTGCAATGAGCTGCTCTCTGGACTCGAACCTTAGATCGCTACAAGT
RNA: CUCACAUCGAGUCCAGAGAGCA
B1: the dissociation constant (Kd) in data set [1] (16 nt hybrid) was roughly 9.7 µM.

B2: R-loop 1 (mixed)
DNA 1: ACTTGTAGCGATCTAAGGTCTTTTTTTTTGGCTCATTGCAGTAGAGTAGC
DNA 2: GCTACTCTACTGCAATGAGCTGCTCTCTGGAACCTTAGATCGCTACAAGT
RNA: CUCACAUCCAGAGAGCA
For B2, the Kd came to 1.2 ± 0.4 µM in data set [2] (three strands 1:1:1 (nontemplate DNA, template DNA, RNA), 11 bp hybrid) and 0.3 ± 0.1 µM in data set [3].

B3: R-loop 2 (mixed)
DNA 1: ACTTGTAGCGATCTAAGGTCTTTTTTTTTAGCTCATTGCAGTAGAGTAGC
DNA 2: GCTACTCTACTGCAATGAGCTGCTCTCTGGAACCTTAGATCGCTACAAGT
RNA: CUCACAUCCAGAGAGCA
For B3, in data set [2] (setting [4]), the equilibrium dissociation constant (Kd) was determined as 1.1 ± 0.4 µM.

B4: R-loop 3 (mixed)
DNA 1: ACTTGTAGCGATCTAAGGTCTTTTTTTTTGCCTCATTGCAGTAGAGTAGC
DNA 2: GCTACTCTACTGCAATGAGCTGCTCTCTGGAACCTTAGATCGCTACAAGT
RNA: CUCACAUCCAGAGAGCA
Consider B4, for which the Kd in data set [2] (setting [4]) came to 1.5 ± 0.4 µM.

B5: R-loop 7 (mixed)
DNA 1: ACTTGTAGCGATCTAAGGTCTTTTTTTTTTTTTTTTTTTGGCTCATTGCAGTAGAGTAGC
DNA 2: GCTACTCTACTGCAATGAGCTGGGATGTGTAGTGGAATAGAACCTTAGATCGCTACAAGT
RNA: CUCACAUCUAUUCCACUACACAUCCCA
On to B5, for which the dissociation constant (Kd) in data set [1] (extended hybrid) was roughly 6.7 µM.

B6: R-loop 8 (mixed)
DNA 1: ACTTGTAGCGATCTAAGGTCTTTTTTTTTTTTTTTTTTTTTTTTTTTTTGGCTCATTGCAGTAGAGTAGC
DNA 2: GCTACTCTACTGCAATGAGTGCTTGATGGAGGGATGTGTAGTGGAATAGATACCTTAGATCGCTACAAGT
RNA: CUCACAUCUAUUCCACUACACAUCCCUCCAUCAAGCA
Take B6: the Kd in data set [1] (extended hybrid) was roughly 9.3 µM.

B7: R-loop 9 (mixed)
DNA 1: ACTTGTAGCGATCTAAGGTCTTTTGGGTGGGTGGGTGGGTTTTTTTTTTGGCTCATTGCAGTAGAGTAGC
DNA 2: GCTACTCTACTGCAATGAGTGCTTGATGGAGGGATGTGTAGTGGAATAGATACCTTAGATCGCTACAAGT
RNA: CUCACAUCUAUUCCACUACACAUCCCUCCAUCAAGCA
In the case of B7, the Kd in data set [1] (extended hybrid, G4 in nontemplate DNA (annealed in 140 mM KCl)) is roughly 5.1 µM.
